# Results as given in US20110300138A1 (published 2011).
# Where two headings read alike, the source gives them in different places.
# Key:
# Assay in all cases: cell-based or functional assay
# [1] = target: TSHR with Arg109 mutated to Ala, expressed in CHO cells (human) (UniProt P16473)
# [2] = target: wild type TSHR expressed in CHO cells (human) (UniProt P16473)
# [3] = target: TSHR with Arg80 mutated to Ala expressed in CHO cells (human) (UniProt P16473)
substance,measurement,setting,value
TSH (ligand),% inhibition of TSH stimulation; TSH (2) control; Experiment 2,[1],6%
same,Cyclic AMP produced; TSH 3 ng/mL; Experiment 1,[1],32.9 pmol/mL
same,Cyclic AMP produced; TSH 3 ng/mL; Experiment 2,[1],53.4 pmol/mL
same,Cyclic AMP produced; TSH (2); Experiment 1,[1],33.3 pmol/mL
same,Cyclic AMP produced; TSH (2); Experiment 2,[1],50.4 pmol/mL
same,Mutated/wild type (%) of cyclic AMP produced; TSH 3 ng/mL; Experiment 1,[1],49%
same,Mutated/wild type (%) of cyclic AMP produced; TSH 3 ng/mL; Experiment 2,[1],88%
same,Mutated/wild type (%) of cyclic AMP produced; TSH (2); Experiment 1,[1],49%
same,Mutated/wild type (%) of cyclic AMP produced; TSH (2); Experiment 2,[1],74%
same,"% inhibition of TSH stimulation, wild type TSHR; TSH (2) (run at the end of assay)",[2],0%
same,% inhibition of TSH stimulation; TSH (2),[2],0%
same,"% inhibition of TSH stimulation; TSH (2) (run at the end of assay, against the first TSH sample); Experiment 1",[2],0%
same,"% inhibition of TSH stimulation; TSH (2) (run at the end of assay, against the first TSH sample); Experiment 2",[2],0%
same,"% inhibition of TSH stimulation; TSH (2), run at the end of assay",[2],0.2%
same,% inhibition of TSH stimulation; TSH (2); Experiment 1,[2],0%
same,% inhibition of TSH stimulation; TSH (2); Experiment 2,[2],0%
same,"Cyclic AMP produced (pmol/mL), 0.01 ng/mL TSH",[2],2.29 pmol/mL
same,"Cyclic AMP produced (pmol/mL), 0.01 ng/mL TSH, Experiment 1",[2],1.8 pmol/mL
same,"Cyclic AMP produced (pmol/mL), 0.01 ng/mL TSH, Experiment 2",[2],1.3 pmol/mL
same,"Cyclic AMP produced (pmol/mL), 0.03 ng/mL TSH",[2],3.56 pmol/mL
same,"Cyclic AMP produced (pmol/mL), 0.03 ng/mL TSH, Experiment 1",[2],3.91 pmol/mL
same,"Cyclic AMP produced (pmol/mL), 0.03 ng/mL TSH, Experiment 2",[2],3 pmol/mL
same,"Cyclic AMP produced (pmol/mL), 0.1 ng/mL TSH",[2],8.45 pmol/mL
same,"Cyclic AMP produced (pmol/mL), 0.1 ng/mL TSH, Experiment 1",[2],8.92 pmol/mL
same,"Cyclic AMP produced (pmol/mL), 0.1 ng/mL TSH, Experiment 2",[2],6.69 pmol/mL
same,"Cyclic AMP produced (pmol/mL), 0.3 ng/mL TSH",[2],26.3 pmol/mL
same,"Cyclic AMP produced (pmol/mL), 0.3 ng/mL TSH, Experiment 1",[2],33 pmol/mL
same,"Cyclic AMP produced (pmol/mL), 0.3 ng/mL TSH, Experiment 2",[2],26.2 pmol/mL
same,"Cyclic AMP produced (pmol/mL), 1 ng/mL TSH",[2],65.7 pmol/mL
same,"Cyclic AMP produced (pmol/mL), 1 ng/mL TSH, Experiment 1",[2],76.1 pmol/mL
same,"Cyclic AMP produced (pmol/mL), 1 ng/mL TSH, Experiment 2",[2],68.1 pmol/mL
same,"Cyclic AMP produced (pmol/mL), 3 ng/mL TSH",[2],77.1 pmol/mL
same,"Cyclic AMP produced (pmol/mL), 3 ng/mL TSH, Experiment 1",[2],86.2 pmol/mL
same,"Cyclic AMP produced (pmol/mL), 3 ng/mL TSH, Experiment 2",[2],69.8 pmol/mL
same,"Cyclic AMP produced (pmol/mL), TSH 0.01 ng/mL",[2],1.56 pmol/mL
same,"Cyclic AMP produced (pmol/mL), TSH 0.01 ng/mL, Experiment 1",[2],1.37 pmol/mL
same,"Cyclic AMP produced (pmol/mL), TSH 0.01 ng/mL, Experiment 2",[2],2.1 pmol/mL
same,"Cyclic AMP produced (pmol/mL), TSH 0.03 ng/mL",[2],2.42 pmol/mL
same,"Cyclic AMP produced (pmol/mL), TSH 0.03 ng/mL, Experiment 1",[2],1.58 pmol/mL
same,"Cyclic AMP produced (pmol/mL), TSH 0.03 ng/mL, Experiment 2",[2],4.48 pmol/mL
same,"Cyclic AMP produced (pmol/mL), TSH 0.1 ng/mL",[2],4.09 pmol/mL
same,"Cyclic AMP produced (pmol/mL), TSH 0.1 ng/mL, Experiment 1",[2],1.83 pmol/mL
same,"Cyclic AMP produced (pmol/mL), TSH 0.1 ng/mL, Experiment 2",[2],10.3 pmol/mL
same,"Cyclic AMP produced (pmol/mL), TSH 0.3 ng/mL",[2],11.4 pmol/mL
same,"Cyclic AMP produced (pmol/mL), TSH 0.3 ng/mL, Experiment 1 (single determination)",[2],3.2 pmol/mL
same,"Cyclic AMP produced (pmol/mL), TSH 0.3 ng/mL, Experiment 2",[2],35.7 pmol/mL
same,"Cyclic AMP produced (pmol/mL), TSH 1 ng/mL",[2],45.6 pmol/mL
same,"Cyclic AMP produced (pmol/mL), TSH 1 ng/mL, Experiment 1",[2],15.9 pmol/mL
same,"Cyclic AMP produced (pmol/mL), TSH 1 ng/mL, Experiment 2",[2],72 pmol/mL
same,"Cyclic AMP produced (pmol/mL), TSH 3 ng/mL",[2],77.9 pmol/mL
same,"Cyclic AMP produced (pmol/mL), TSH 3 ng/mL, Experiment 1",[2],47.6 pmol/mL
same,"Cyclic AMP produced (pmol/mL), TSH 3 ng/mL, Experiment 2",[2],79.2 pmol/mL
same,"Cyclic AMP produced, TSH 0.01 ng/mL, wild type TSHR",[2],2.28 pmol/mL
same,"Cyclic AMP produced, TSH 0.03 ng/mL, wild type TSHR",[2],3.77 pmol/mL
same,"Cyclic AMP produced, TSH 0.1 ng/mL, wild type TSHR",[2],9.55 pmol/mL
same,"Cyclic AMP produced, TSH 0.3 ng/mL, wild type TSHR",[2],28.8 pmol/mL
same,"Cyclic AMP produced, TSH 1 ng/mL, wild type TSHR",[2],76.8 pmol/mL
same,"Cyclic AMP produced, TSH 3 ng/mL, wild type TSHR",[2],93.1 pmol/mL
same,"Cyclic AMP produced, wild type TSHR, TSH 0.01 ng/mL (Experiment 1)",[2],1.69 pmol/mL
same,"Cyclic AMP produced, wild type TSHR, TSH 0.01 ng/mL (Experiment 2)",[2],4.16 pmol/mL
same,"Cyclic AMP produced, wild type TSHR, TSH 0.03 ng/mL (Experiment 1)",[2],2.46 pmol/mL
same,"Cyclic AMP produced, wild type TSHR, TSH 0.03 ng/mL (Experiment 2)",[2],4.92 pmol/mL
same,"Cyclic AMP produced, wild type TSHR, TSH 0.1 ng/mL (Experiment 1)",[2],6.18 pmol/mL
same,"Cyclic AMP produced, wild type TSHR, TSH 0.1 ng/mL (Experiment 2)",[2],11.2 pmol/mL
same,"Cyclic AMP produced, wild type TSHR, TSH 0.3 ng/mL (Experiment 1)",[2],18.9 pmol/mL
same,"Cyclic AMP produced, wild type TSHR, TSH 0.3 ng/mL (Experiment 2)",[2],31.4 pmol/mL
same,"Cyclic AMP produced, wild type TSHR, TSH 1 ng/mL (Experiment 1)",[2],45.2 pmol/mL
same,"Cyclic AMP produced, wild type TSHR, TSH 1 ng/mL (Experiment 2)",[2],74.3 pmol/mL
same,"Cyclic AMP produced, wild type TSHR, TSH 3 ng/mL (Experiment 1)",[2],61.6 pmol/mL
same,"Cyclic AMP produced, wild type TSHR, TSH 3 ng/mL (Experiment 2)",[2],96.4 pmol/mL
same,Cyclic AMP produced; TSH 3 ng/mL,[2],85 pmol/mL
same,Cyclic AMP produced; TSH 3 ng/mL alone,[2],83.8 pmol/mL
same,Cyclic AMP produced; TSH 3 ng/mL; Experiment 1,[2],68.8 pmol/mL
same,Cyclic AMP produced; TSH 3 ng/mL; Experiment 2,[2],97.9 pmol/mL
same,Cyclic AMP produced; TSH (2),[2],93.5 pmol/mL
same,"Cyclic AMP produced; TSH (2) 3 ng/mL, run at the end of assay",[2],83.6 pmol/mL
same,Cyclic AMP produced; TSH (2); Experiment 1,[2],74.3 pmol/mL
same,Cyclic AMP produced; TSH (2); Experiment 2,[2],102 pmol/mL
same,"Experiment 1: % inhibition of TSH stimulation; TSH (2), run at the end of assay",[2],0%
same,"Experiment 1; % inhibition of TSH stimulation; TSH (2) 3 ng/mL, run at the end of assay",[2],5%
same,Experiment 1; cyclic AMP produced; TSH 3 ng/mL,[2],78 pmol/mL
same,"Experiment 1; cyclic AMP produced; TSH (2) 3 ng/mL, run at the end of assay",[2],74.3 pmol/mL
same,"Experiment 2: % inhibition of TSH stimulation; TSH (2), run at the end of assay",[2],0%
same,"Experiment 2; % inhibition of TSH stimulation; TSH (2) 3 ng/mL, run at the end of assay",[2],3%
same,Experiment 2; cyclic AMP produced; TSH 3 ng/mL,[2],95.8 pmol/mL
same,"Experiment 2; cyclic AMP produced; TSH (2) 3 ng/mL, run at the end of assay",[2],92.9 pmol/mL
same,% inhibition of TSH stimulation; TSH (2),[2]; record 2,0%
same,% inhibition of TSH stimulation; TSH (2); Experiment 1,[2]; record 2,0%
same,% inhibition of TSH stimulation; TSH (2); Experiment 2,[2]; record 2,0%
same,Cyclic AMP produced; TSH 3 ng/mL,[2]; record 2,76.2 pmol/mL
same,Cyclic AMP produced; TSH 3 ng/mL; Experiment 1,[2]; record 2,154 pmol/mL
same,Cyclic AMP produced; TSH 3 ng/mL; Experiment 2,[2]; record 2,59.9 pmol/mL
same,Cyclic AMP produced; TSH (2),[2]; record 2,93.8 pmol/mL
same,Cyclic AMP produced; TSH (2); Experiment 1,[2]; record 2,160 pmol/mL
same,Cyclic AMP produced; TSH (2); Experiment 2,[2]; record 2,61.5 pmol/mL
same,% inhibition of TSH stimulation; TSH (2),[3],16%
same,Cyclic AMP produced; TSH 3 ng/mL,[3],105 pmol/mL
same,Cyclic AMP produced; TSH (2),[3],88.2 pmol/mL
same,Mutated/wild type (%) of cyclic AMP produced; TSH 3 ng/mL,[3],124%
same,Mutated/wild type (%) of cyclic AMP produced; TSH (2),[3],94%
